The text below walks through data of CN108003238A (VELOX PHARMACEUTICALS INC, dated 2018).

Assay [1] has as its target 小鼠CTLA4/CD152蛋白(His标签) (mouse) (UniProt P09793). Description: ELISA, mouse CTLA-4 coated, anti-human Fc HRP detection. For orientation: In an ELISA, binding on a coated surface is turned into a signal by an enzyme label.
The target of assay [2] is T1, Human CTLA-4/CD152 Protein (His Tag), Biotinylated (human, UniProt P16410 36-161, biotinylated (site not stated)).
T1 construct: Bought recombinant protein; also called 人CTLA-4蛋白; 抗原; not shown: His tag
T1 sequence (looked up): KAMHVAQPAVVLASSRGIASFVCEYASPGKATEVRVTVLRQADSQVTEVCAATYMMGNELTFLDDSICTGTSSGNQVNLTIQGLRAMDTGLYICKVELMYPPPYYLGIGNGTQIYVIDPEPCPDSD
Put plainly: multi-cycle kinetics on OCTET, antibody captured on Protein A, CTLA-4 diluted 2-fold from 33 nM over 7 points.

Sequence of UniProt P09793 (P09793 36-161 limits assumed): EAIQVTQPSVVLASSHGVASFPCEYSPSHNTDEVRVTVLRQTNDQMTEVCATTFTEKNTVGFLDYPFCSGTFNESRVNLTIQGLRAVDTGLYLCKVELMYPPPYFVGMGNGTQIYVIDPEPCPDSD

B1: IgG1-6E2-CTLA-4 (antibody, V domains shown)
VH: QVQLVQSGAEVKKPGSSVKVSCKASGGTFSSYGISWVRQAPGQGLEWMGGIIPIFETSESAQKFQGRVTFTADKSSSTGYMELSSLRSEDTAIYYCARDPLHRSSSGTYYHYFMDVWGQGTMVTVSS
VL: QAVLTQPSSLSASPGASVSLTCTLRSGINVGAYRIYWYQQKPGSPPQFLLRYKSDSDKEQGRGVPSRFSGSKDASANAGILLISGLQSEDEADYYCMIWHNNAVFFGGGTKLTVLG
notes: also called 抗CTLA-4全人源单克隆抗体
In assay [1], B1 had an antibody concentration at which binding is still not saturated above 8 ng/µL. Binding in assay [2] was characterised by a dissociation constant (Kd) of 1 pM.
